These results are taken from patent US20040029228A1.

Experiment in all cases: cell-based or functional assay
Assay [1] deals with T1, human zcytor19 (Zyctor19) cytokine receptor (human).
T1 sequence (Q8IU57 1-520, looked up): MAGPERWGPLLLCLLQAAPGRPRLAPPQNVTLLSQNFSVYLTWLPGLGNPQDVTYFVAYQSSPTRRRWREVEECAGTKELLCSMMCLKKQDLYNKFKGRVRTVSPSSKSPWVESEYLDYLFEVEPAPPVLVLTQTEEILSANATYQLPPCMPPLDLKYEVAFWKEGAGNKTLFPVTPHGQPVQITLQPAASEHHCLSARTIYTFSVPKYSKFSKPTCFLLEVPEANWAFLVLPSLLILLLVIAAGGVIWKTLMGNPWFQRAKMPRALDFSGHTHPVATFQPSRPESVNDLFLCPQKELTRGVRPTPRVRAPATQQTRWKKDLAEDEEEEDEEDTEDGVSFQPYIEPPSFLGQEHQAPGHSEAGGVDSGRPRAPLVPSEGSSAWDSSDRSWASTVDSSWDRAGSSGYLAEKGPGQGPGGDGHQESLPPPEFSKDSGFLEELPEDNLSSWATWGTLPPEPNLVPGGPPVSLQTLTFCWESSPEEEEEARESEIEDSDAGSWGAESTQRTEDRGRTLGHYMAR

Assay [2] has as its target zcytoR19 and IL10Rb (CRF2-4) co-expressed on cells (heterodimeric receptor) (human).
Assay [3] concerns the target human CRF2-4 (IL10Rb) (human).

Chain of zcyto21 (ligand) (Q8IU54 20-200): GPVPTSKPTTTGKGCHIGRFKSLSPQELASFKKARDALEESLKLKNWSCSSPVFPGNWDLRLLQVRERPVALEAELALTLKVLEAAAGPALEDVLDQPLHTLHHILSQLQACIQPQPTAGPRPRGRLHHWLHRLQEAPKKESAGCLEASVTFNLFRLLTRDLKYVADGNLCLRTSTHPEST
Chain of human CRF2-4 (IL10Rb) (human) (Q08334 whole entry): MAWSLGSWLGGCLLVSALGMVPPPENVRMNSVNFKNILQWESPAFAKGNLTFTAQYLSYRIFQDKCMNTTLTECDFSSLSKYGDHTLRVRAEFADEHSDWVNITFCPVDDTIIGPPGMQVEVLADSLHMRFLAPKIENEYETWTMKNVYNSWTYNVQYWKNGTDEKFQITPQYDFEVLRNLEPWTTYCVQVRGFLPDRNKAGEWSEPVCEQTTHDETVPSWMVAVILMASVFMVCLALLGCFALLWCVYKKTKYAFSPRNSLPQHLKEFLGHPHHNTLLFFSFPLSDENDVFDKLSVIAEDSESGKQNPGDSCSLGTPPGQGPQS

Take “huIL10 (from UniProt P22301 19-178) (ligand)”: the ISRE-luciferase fold induction, 293 cells transfected with ISRE-Luc./Zcytor19, HuIL10 100 ng/ml (fold induction) in assay [1] was 0.5.
Take “zcyto10 (from UniProt Q9NYY1 25-176) (ligand)”: the ISRE-luciferase fold induction, 293 cells transfected with ISRE-Luc./Zcytor19, Zcyto10 125 ng/ml (fold induction) in assay [1] came out at 1.
In assay [2], zcyto20 (ligand) displayed an ISRE-luciferase fold induction, BHK cells transfected with zcytoR19 and IL10Rb (CRF2-4), zcyto20 0.001 ng/ml (fold induction) of 1.5; an ISRE-luciferase fold induction, BHK cells transfected with zcytoR19 and IL10Rb (CRF2-4), zcyto20 0.01 ng/ml (fold induction) of 1.6; an ISRE-luciferase fold induction, BHK cells transfected with zcytoR19 and IL10Rb (CRF2-4), zcyto20 0.1 ng/ml (fold induction) of 2.1; an ISRE-luciferase fold induction, BHK cells transfected with zcytoR19 and IL10Rb (CRF2-4), zcyto20 1 ng/ml (fold induction) of 2.5. Moreover, in assay [2], the ISRE-luciferase fold induction, BHK cells transfected with zcytoR19 and IL10Rb (CRF2-4), zcyto20 10 ng/ml (fold induction) turned out to be 2.4; the ISRE-luciferase fold induction, BHK cells transfected with zcytoR19 and IL10Rb (CRF2-4), zcyto20 100 ng/ml (fold induction) was 2.6; the ISRE-luciferase fold induction, BHK cells transfected with zcytoR19 and IL10Rb (CRF2-4), zcyto20 1000 ng/ml (fold induction) is 2.1. Moreover, in assay [3], the ISRE-luciferase fold induction, wild-type 293 cells, Zcyto20 0.01 ng/ml (fold induction) came to 1; the ISRE-luciferase fold induction, wild-type 293 cells, Zcyto20 0.01 ng/ml + IL10Rb neutralizing Antibody (fold induction) came out at 0.8; the ISRE-luciferase fold induction, wild-type 293 cells, Zcyto20 0.1 ng/ml (fold induction) came out at 1; the ISRE-luciferase fold induction, wild-type 293 cells, Zcyto20 0.1 ng/ml + IL10Rb neutralizing Antibody (fold induction) came to 1. Moreover, in assay [3], the ISRE-luciferase fold induction, wild-type 293 cells, Zcyto20 1 ng/ml (fold induction) amounted to 1; the ISRE-luciferase fold induction, wild-type 293 cells, Zcyto20 1 ng/ml + IL10Rb neutralizing Antibody (fold induction) turned out to be 0.9; the ISRE-luciferase fold induction, wild-type 293 cells, Zcyto20 10 ng/ml (fold induction) came out at 4; the ISRE-luciferase fold induction, wild-type 293 cells, Zcyto20 10 ng/ml + IL10Rb neutralizing Antibody (fold induction) amounted to 0.9. For the same substance, in assay [3], the ISRE-luciferase fold induction, wild-type 293 cells, Zcyto20 100 ng/ml (fold induction) was 8.4; the ISRE-luciferase fold induction, wild-type 293 cells, Zcyto20 100 ng/ml + IL10Rb neutralizing Antibody (fold induction) worked out at 0.8; the ISRE-luciferase fold induction, zcytoR19-overexpressing 293 cells, Zcyto20 0.01 ng/ml (fold induction) is 1.1; the ISRE-luciferase fold induction, zcytoR19-overexpressing 293 cells, Zcyto20 0.01 ng/ml + IL10Rb neutralizing Antibody (fold induction) was found to be 1.2. For the same substance, in assay [3], the ISRE-luciferase fold induction, zcytoR19-overexpressing 293 cells, Zcyto20 0.1 ng/ml (fold induction) was determined as 6; the ISRE-luciferase fold induction, zcytoR19-overexpressing 293 cells, Zcyto20 0.1 ng/ml + IL10Rb neutralizing Antibody (fold induction) amounted to 1.1; the ISRE-luciferase fold induction, zcytoR19-overexpressing 293 cells, Zcyto20 1 ng/ml (fold induction) was found to be 68; the ISRE-luciferase fold induction, zcytoR19-overexpressing 293 cells, Zcyto20 1 ng/ml + IL10Rb neutralizing Antibody (fold induction) amounted to 1.3. Moreover, in assay [3], the ISRE-luciferase fold induction, zcytoR19-overexpressing 293 cells, Zcyto20 10 ng/ml (fold induction) amounted to 97; the ISRE-luciferase fold induction, zcytoR19-overexpressing 293 cells, Zcyto20 10 ng/ml + IL10Rb neutralizing Antibody (fold induction) was 23; the ISRE-luciferase fold induction, zcytoR19-overexpressing 293 cells, Zcyto20 100 ng/ml (fold induction) was 91; the ISRE-luciferase fold induction, zcytoR19-overexpressing 293 cells, Zcyto20 100 ng/ml + IL10Rb neutralizing Antibody (fold induction) was determined as 60. Moreover, in assay [1], the ISRE-luciferase fold induction, 293 cells transfected with ISRE-Luc./Zcytor19, Zcyto20 125 ng/ml (fold induction) was determined as 125; the ISRE-luciferase fold induction, BHK cells transfected with zcytoR19 alone, zcyto20 0.001 ng/ml (fold induction) came out at 1.4; the ISRE-luciferase fold induction, BHK cells transfected with zcytoR19 alone, zcyto20 0.01 ng/ml (fold induction) was found to be 1.2; the ISRE-luciferase fold induction, BHK cells transfected with zcytoR19 alone, zcyto20 0.1 ng/ml (fold induction) was determined as 1.25. For the same substance, in assay [1], the ISRE-luciferase fold induction, BHK cells transfected with zcytoR19 alone, zcyto20 1 ng/ml (fold induction) came out at 1.3; the ISRE-luciferase fold induction, BHK cells transfected with zcytoR19 alone, zcyto20 10 ng/ml (fold induction) came out at 2.1; the ISRE-luciferase fold induction, BHK cells transfected with zcytoR19 alone, zcyto20 100 ng/ml (fold induction) is 2.2; the ISRE-luciferase fold induction, BHK cells transfected with zcytoR19 alone, zcyto20 1000 ng/ml (fold induction) amounted to 2.25.
In assay [3], zcyto20-CEE (ligand) came in with an Optical Density (570 nm) of EMCV-infected cells, HuzcytoR19-overexpressing 293 cells, Zcyto20-CEE 0.5 ng/ml, Anti-IL10Rb 5 µg/ml of 0.95 OD 570 nm; an Optical Density (570 nm) of EMCV-infected cells, HuzcytoR19-overexpressing 293 cells, Zcyto20-CEE 0.5 ng/ml, Anti-LeptinR control antibody 5 µg/ml of 2.24 OD 570 nm; an Optical Density (570 nm) of EMCV-infected cells, wild-type 293 cells, Zcyto20-CEE 200 ng/ml, Anti-IL10Rb 5 µg/ml of 0.94 OD 570 nm; an Optical Density (570 nm) of EMCV-infected cells, wild-type 293 cells, Zcyto20-CEE 200 ng/ml, Anti-LeptinR control antibody 5 µg/ml of 1.88 OD 570 nm.
On to zcyto21 (ligand), for which, in assay [2], the ISRE-luciferase fold induction, BHK cells transfected with zcytoR19 and IL10Rb (CRF2-4), zcyto21 0.001 ng/ml (fold induction) amounted to 1.3; the ISRE-luciferase fold induction, BHK cells transfected with zcytoR19 and IL10Rb (CRF2-4), zcyto21 0.01 ng/ml (fold induction) came out at 1.6; the ISRE-luciferase fold induction, BHK cells transfected with zcytoR19 and IL10Rb (CRF2-4), zcyto21 0.1 ng/ml (fold induction) is 2.2; the ISRE-luciferase fold induction, BHK cells transfected with zcytoR19 and IL10Rb (CRF2-4), zcyto21 1 ng/ml (fold induction) stood at 2.5. Besides, in assay [2], the ISRE-luciferase fold induction, BHK cells transfected with zcytoR19 and IL10Rb (CRF2-4), zcyto21 10 ng/ml (fold induction) was 2.6; the ISRE-luciferase fold induction, BHK cells transfected with zcytoR19 and IL10Rb (CRF2-4), zcyto21 100 ng/ml (fold induction) is 2.5; the ISRE-luciferase fold induction, BHK cells transfected with zcytoR19 and IL10Rb (CRF2-4), zcyto21 1000 ng/ml (fold induction) was 2.2. In assay [3], the ISRE-luciferase fold induction, wild-type 293 cells, Zcyto21 0.001 ng/ml (fold induction) is 1.2; the ISRE-luciferase fold induction, wild-type 293 cells, Zcyto21 0.001 ng/ml + IL10Rb neutralizing Antibody (fold induction) was 1.3; the ISRE-luciferase fold induction, wild-type 293 cells, Zcyto21 0.01 ng/ml (fold induction) amounted to 1.2; the ISRE-luciferase fold induction, wild-type 293 cells, Zcyto21 0.01 ng/ml + IL10Rb neutralizing Antibody (fold induction) is 1.3. Further, in assay [3], the ISRE-luciferase fold induction, wild-type 293 cells, Zcyto21 0.1 ng/ml (fold induction) came out at 1.1; the ISRE-luciferase fold induction, wild-type 293 cells, Zcyto21 0.1 ng/ml + IL10Rb neutralizing Antibody (fold induction) was determined as 1.3; the ISRE-luciferase fold induction, wild-type 293 cells, Zcyto21 1 ng/ml (fold induction) was 1.5; the ISRE-luciferase fold induction, wild-type 293 cells, Zcyto21 1 ng/ml + IL10Rb neutralizing Antibody (fold induction) amounted to 1.3. In assay [3], the ISRE-luciferase fold induction, wild-type 293 cells, Zcyto21 10 ng/ml (fold induction) was determined as 3.2; the ISRE-luciferase fold induction, wild-type 293 cells, Zcyto21 10 ng/ml + IL10Rb neutralizing Antibody (fold induction) was determined as 1.4; the ISRE-luciferase fold induction, wild-type 293 cells, Zcyto21 100 ng/ml (fold induction) worked out at 4.1; the ISRE-luciferase fold induction, wild-type 293 cells, Zcyto21 100 ng/ml + IL10Rb neutralizing Antibody (fold induction) was found to be 1.8. In addition, in assay [3], the ISRE-luciferase fold induction, zcytoR19-overexpressing 293 cells, Zcyto21 0.001 ng/ml (fold induction) stood at 1.1; the ISRE-luciferase fold induction, zcytoR19-overexpressing 293 cells, Zcyto21 0.001 ng/ml + IL10Rb neutralizing Antibody (fold induction) is 1; the ISRE-luciferase fold induction, zcytoR19-overexpressing 293 cells, Zcyto21 0.01 ng/ml (fold induction) is 1.5; the ISRE-luciferase fold induction, zcytoR19-overexpressing 293 cells, Zcyto21 0.01 ng/ml + IL10Rb neutralizing Antibody (fold induction) turned out to be 1.1. Moreover, in assay [3], the ISRE-luciferase fold induction, zcytoR19-overexpressing 293 cells, Zcyto21 0.1 ng/ml (fold induction) is 3.5; the ISRE-luciferase fold induction, zcytoR19-overexpressing 293 cells, Zcyto21 0.1 ng/ml + IL10Rb neutralizing Antibody (fold induction) worked out at 1; the ISRE-luciferase fold induction, zcytoR19-overexpressing 293 cells, Zcyto21 1 ng/ml (fold induction) was 35; the ISRE-luciferase fold induction, zcytoR19-overexpressing 293 cells, Zcyto21 1 ng/ml + IL10Rb neutralizing Antibody (fold induction) is 5.8. In assay [3], the ISRE-luciferase fold induction, zcytoR19-overexpressing 293 cells, Zcyto21 10 ng/ml (fold induction) turned out to be 48; the ISRE-luciferase fold induction, zcytoR19-overexpressing 293 cells, Zcyto21 10 ng/ml + IL10Rb neutralizing Antibody (fold induction) came out at 28; the ISRE-luciferase fold induction, zcytoR19-overexpressing 293 cells, Zcyto21 100 ng/ml (fold induction) is 45; the ISRE-luciferase fold induction, zcytoR19-overexpressing 293 cells, Zcyto21 100 ng/ml + IL10Rb neutralizing Antibody (fold induction) stood at 31. In addition, in assay [1], the ISRE-luciferase fold induction, BHK cells transfected with zcytoR19 alone, zcyto21 0.001 ng/ml (fold induction) was 1.3; the ISRE-luciferase fold induction, BHK cells transfected with zcytoR19 alone, zcyto21 0.01 ng/ml (fold induction) turned out to be 1.4; the ISRE-luciferase fold induction, BHK cells transfected with zcytoR19 alone, zcyto21 0.1 ng/ml (fold induction) turned out to be 1.4; the ISRE-luciferase fold induction, BHK cells transfected with zcytoR19 alone, zcyto21 1 ng/ml (fold induction) was found to be 2. In assay [1], this substance showed an ISRE-luciferase fold induction, BHK cells transfected with zcytoR19 alone, zcyto21 10 ng/ml (fold induction) of 2.4; an ISRE-luciferase fold induction, BHK cells transfected with zcytoR19 alone, zcyto21 100 ng/ml (fold induction) of 2.6; an ISRE-luciferase fold induction, BHK cells transfected with zcytoR19 alone, zcyto21 1000 ng/ml (fold induction) of 3.3.
